Here are results for one protein from paper PMC8805214, “Crystal structure of betaine aldehyde dehydrogenase from Burkholderia pseudomallei” (Acta Crystallographica. Section F, Structural Biology …, 2022).

The data set deals with the molecule itself. Put plainly: crystal structure.

B1: betaine aldehyde dehydrogenase from Burkholderia pseudomallei (enzyme)
chain: MSVYGLQRLYIAGAHADATSGKTFDTFDPATGELLARVQQASADDVDRAVASAREGQREWAAMTAMQRSRILRRAVELLRERNDALAELEMRDTGKPIAETRAVDIVTGADVIEYYAGLATAIEGLQVPLRPESFVYTRREPLGVCAGIGAWNYPIQIACWKSAPALAAGNAMIFKPSEVTPLSALKLAEIYTEAGVPAGVFNVVQGDGSVGALLSAHPGIAKVSFTGGVETGKKVMSLAGASSLKEVTMELGGKSPLIVFDDADLDRAADIAVTANFFSAGQVCTNGTRVFVQQAVKDAFVERVLARVARIRVGKPSDSDTNFGPLASAAQLDKVLGYIDSGKAEGAKLLAGGARLVNDHFASGQYVAPTVFGDCRDDMRIVREEIFGPVMSILSFETEDEAIARANATDYGLAAGVVTENLSRAHRAIHRLEAGICWINTWGESPAEMPVGGYKQSGVGRENGITTLEHYTRIKSVQVELGRYQPVF
notes: also called BpBADH; BpBADH-His; not shown: His6, C-terminal, kept
Take B1: the binding result is given as “binds”.
